Biological target: T1, human MARCO (macrophage receptor with a collagenous structure) (human, UniProt Q9UEW3 1-520)
T1 construct: also called HIN-2 receptor
T1 sequence: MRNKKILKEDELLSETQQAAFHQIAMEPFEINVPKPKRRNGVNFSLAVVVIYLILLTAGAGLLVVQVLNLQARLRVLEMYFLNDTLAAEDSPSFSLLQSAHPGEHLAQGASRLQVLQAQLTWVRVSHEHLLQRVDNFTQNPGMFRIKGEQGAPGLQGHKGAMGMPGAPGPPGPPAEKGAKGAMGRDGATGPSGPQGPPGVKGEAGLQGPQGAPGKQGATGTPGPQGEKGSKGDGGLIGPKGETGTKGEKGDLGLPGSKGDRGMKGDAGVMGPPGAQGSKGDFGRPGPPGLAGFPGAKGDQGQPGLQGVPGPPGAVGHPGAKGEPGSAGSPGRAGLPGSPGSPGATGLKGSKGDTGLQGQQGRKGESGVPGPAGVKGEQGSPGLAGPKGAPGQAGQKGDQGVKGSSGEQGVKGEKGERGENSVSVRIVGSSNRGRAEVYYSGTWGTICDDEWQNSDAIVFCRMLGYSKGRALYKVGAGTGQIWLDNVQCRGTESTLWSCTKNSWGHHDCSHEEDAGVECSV
Experiment: staining of retrovirally transduced U937 cells with FLAG-HIN-2
Description: cDNA for both MARCO and SP-C were subcloned into the MSCV-IRES retroviral vector, which contains an IRES element followed by the gene encoding green fluorescent protein (GFP). Briefly, for MARCO, full length cDNA fragment encoding MARCO was amplified by PCR from the single MARCO expression cell clone cDNA with two primers from the human lung retroviral cDNA library (Strategene). The amplified cDNA fragment was digested with Sal I and Not I and cloned into the Xho I and Not I site of MSCV-GFP plasmid and PRK plasmids to make MSCV-MARCO and PRK-MARCO. SP-C cDNA was similarly prepared. Viruses were produced and used to infect U937 cells, and the infected cells were stained with FLAG-HIN-2. The FLAG-HIN-2 specifically stained the U937 cell line transduced with retroviruses encoding the MARCO, but no staining was detected on uninfected, MSCV-empty vector infected, or SP-C infected cells (data not shown).

B1: FLAG-HIN-2 (mature human HIN-2 with a carboxy-terminal Flag tag, secreted from 293 cells) (ligand)
chain: FLINKVPLPVDKLAPLPLDNILPFMDPLKLLLKTLGISVEHLVEGLRKCVNELGPEASEAVKKLLEALSHLV
notes: also called HIN-2-FLAG; UGRP1; not shown: C-terminal Flag tag from the PRK-C-FLAG vector; The tagged mature protein is stated to be 86 amino acids, so 14 residues
B1: binds.

— US20050054822A1 (published 2005)
